Consider 34 sequences from the supplement of paper PMC7877785.

This series in a line: self-splicing fitness, log relative to wild type (ln ratio); higher = more splicing; Tetrahymena group I intron in knt gene, E. coli kanamycin selection, DiMSum; sequences stand for … in CUCUCU…GGAGGGAAAAGUUAUCAGGCAUGCACCUGGUAGCUAGUCUUUAAACCAAUAGAUUGCAUCGGUUUAAAAGGCAAGACCGUCAAAUUGCGGGAAAGGGGUCAACAGCCGUUCAGUACCAAGUCUCAGGGGAAACUUUGAGAUGGCCUUGCAAAGGGUAUGGUAAUAAGCUGACGGACAUGGUCCUAACCACGCAGCCAAGUCCUAAGUCAACAGAUCUUCUGUUGAUAUGGAUGCAGUUCACAGACUAAAUGUCGGUCGGGGAAGAUGUAUUCUUCUCAUAAGAUAUAGUCGGACCUCUCCUUAAUGGGAGCUAGCGGAUGAAGUGAUGCAACACUGGAGCCGCUGGGAACUAAUUUGUAUGCGAAAGUAUAUUGAUUAGUUUUGGAGUACUCGUGGUCG
The procedure, abridged:
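Six replicate transformations of E. coli BL21(DE3) with a pET-22b(+) library were grown overnight at 37°C or 30°C. The library randomised all eight P1ex-region intron nucleotides, the intron lying in the knt kanamycin-resistance gene, and plates were LB agar with or without 25 μg/mL kanamycin plus 100 μg/mL carbenicillin, 50 μM IPTG and 0.2% rhamnose. Pooled colonies were amplicon-sequenced on an Illumina HiSeq 2500, and fitness is the DiMSum error-weighted combination of wild-type-normalised replicate fold changes, kanamycin versus none.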

± gives the uncertainty stated by the source.

As for GACUAGCAAUAUUACGGUAU, the “self-splicing fitness (ln)” value by setting is: (30 °C) -1.3 ± 0.074; (37 °C) -0.543 ± 0.092.
For UCUUAGCAAUAUUACGGUCG, in that order: -0.895 ± 0.16 and -1.37 ± 0.33.
Regarding GAGUAGCAAUAUUACGUAUG, the “self-splicing fitness (ln)” value is, setting by setting: (30 °C) -2.85 ± 0.13; (37 °C) -2.51 ± 0.19.
For CCAAAGCAAUAUUACGUCGU, in that order: -3.82 ± 0.19 and -2.75 ± 0.23.
As for UACGAGCAAUAUUACGGAAA, the “self-splicing fitness (ln)” value (37 °C) was -1.29 ± 0.32.
Take ACUUAGCAAUAUUACGCGCG: the “self-splicing fitness (ln)” value was -1.56 ± 0.11 (30 °C) and -0.437 ± 0.12 (37 °C).
As to AUUAAGCAAUAUUACGACAU, the “self-splicing fitness (ln)” value was found to be 0.191 ± 0.012 (30 °C) and 0.193 ± 0.032 (37 °C).
For the sequence GCAAAGCAAUAUUACGCGCA, the “self-splicing fitness (ln)” value (30 °C) is -0.918 ± 0.096 and the “self-splicing fitness (ln)” value (37 °C) was -0.0967 ± 0.092.
Regarding CACUAGCAAUAUUACGUGUU, the “self-splicing fitness (ln)” value is -4.69 ± 0.23 (30 °C) and -2.88 ± 0.16 (37 °C).
As to UGAGAGCAAUAUUACGUAGU, the “self-splicing fitness (ln)” value by setting is: (30 °C) -2.29 ± 0.24; (37 °C) -2.41 ± 0.36.
On to GUCCAGCAAUAUUACGUUGC, for which the “self-splicing fitness (ln)” value is -2.05 ± 0.13 (30 °C) and -0.538 ± 0.16 (37 °C).
The like results for CAGCAGCAAUAUUACGAAUG were, in that order, -1.69 ± 0.061 and 0.012 ± 0.083.
The like results for UAACAGCAAUAUUACGUAAC were, in that order, -2.93 ± 0.17 and -1.62 ± 0.16.
The like results for GAACAGCAAUAUUACGCCGA were, in that order, -0.857 ± 0.12 and -0.581 ± 0.1.
In the case of UUUUAGCAAUAUUACGAAGA, the “self-splicing fitness (ln)” value is -1.85 ± 0.31 (30 °C) and -1.21 ± 0.22 (37 °C).
The like results for UGAAAGCAAUAUUACGUCAU were, in that order, -4.25 ± 0.22 and -1.77 ± 0.14.
For the sequence ACGAAGCAAUAUUACGGGAA, the “self-splicing fitness (ln)” value was -3.09 ± 0.19 (30 °C) and -1.31 ± 0.13 (37 °C).
As for GCAUAGCAAUAUUACGACGC, the “self-splicing fitness (ln)” value is -0.867 ± 0.13 (30 °C) and -0.196 ± 0.13 (37 °C).
For UCCAAGCAAUAUUACGCAGU, in that order: -2.03 ± 0.082 and -0.856 ± 0.093.
The like results for UCACAGCAAUAUUACGAACA were, in that order, -1.58 ± 0.1 and -1.64 ± 0.11.
As for AGGGAGCAAUAUUACGUUAU, the “self-splicing fitness (ln)” value is -3.84 ± 0.34 (30 °C) and -2.94 ± 0.25 (37 °C).
In the case of CAUUAGCAAUAUUACGACUU, the “self-splicing fitness (ln)” value was -1.99 ± 0.16 (30 °C) and -1.71 ± 0.18 (37 °C).
GACGAGCAAUAUUACGCACC: the “self-splicing fitness (ln)” value is, setting by setting: (30 °C) -3.06 ± 0.15; (37 °C) -0.796 ± 0.12.
GAUGAGCAAUAUUACGGGAU: for the setting “37 °C”, the “self-splicing fitness (ln)” value is -2.36 ± 0.42.
Turning to UUUCAGCAAUAUUACGUGUU, the “self-splicing fitness (ln)” value runs as follows: (30 °C) -3.42 ± 0.13; (37 °C) -2.87 ± 0.14.
With UAUGAGCAAUAUUACGUGCU, the “self-splicing fitness (ln)” value is -3.7 ± 0.32 (30 °C) and -2.39 ± 0.34 (37 °C).
For CCACAGCAAUAUUACGGCGG, in that order: -3.15 ± 0.14 and -1.08 ± 0.12.
Take ACAAAGCAAUAUUACGACGA: the “self-splicing fitness (ln)” value runs as follows: (30 °C) -0.436 ± 0.063; (37 °C) -0.207 ± 0.062.
Regarding UAUGAGCAAUAUUACGUUGA, the “self-splicing fitness (ln)” value is, setting by setting: (30 °C) -2.96 ± 0.26; (37 °C) -1.25 ± 0.17.
With AAUUAGCAAUAUUACGAAAC, the “self-splicing fitness (ln)” value (37 °C) is -0.761 ± 0.4.
Consider CAAAAGCAAUAUUACGUACU, for which the “self-splicing fitness (ln)” value was -2.74 ± 0.11 (30 °C) and -0.995 ± 0.09 (37 °C).
On to GCGCAGCAAUAUUACGAAUC, for which the “self-splicing fitness (ln)” value reads like this: (30 °C) 0.348 ± 0.15; (37 °C) -0.0791 ± 0.13.
With UUCGAGCAAUAUUACGCGUA, the “self-splicing fitness (ln)” value runs as follows: (30 °C) -1.94 ± 0.14; (37 °C) -1.51 ± 0.12.
For AAUAAGCAAUAUUACGAUAU, the “self-splicing fitness (ln)” value runs as follows: (30 °C) -1.71 ± 0.11; (37 °C) -0.747 ± 0.13.
